From US20250152742A1, “COMPOSITIONS AND METHODS FOR NEUROLOGICAL DISEASES” (Trames Bio, Inc., priority 2022, published 2025)

Assays:
[1] = system: engineered chimeric receptor SEQ ID NO: 33 and its mutants (human α7-nAChR ligand binding domain / human GlyRα1 ion pore domain) in Lenti-X 293T cells; assay: YFP fluorescence quenching anion reporter plate reader assay (percent quench, EC50); format: cell-based; details: for YFP fluorescence quenching using Facinicline, 30 nM fac: ligand Facinicline 30 nM; for YFP fluorescence quenching using Facinicline, 300 nM fac: ligand Facinicline 300 nM; for YFP fluorescence quenching using Facinicline, 30 uM fac: ligand Facinicline 30 uM; for YFP fluorescence quenching using TC-6987, 1 uM tc6987: ligand TC-6987 1 uM; for YFP fluorescence quenching using TC-6987, 10 uM tc6987: ligand TC-6987 10 uM; for YFP fluorescence quenching using TC-6987, 500 uM tc6987: ligand TC-6987 500 uM; for YFP fluorescence quenching using CNL001 (percent quench): receptor named in row; for YFP fluorescence quenching using Varenicline, 3 nM var: ligand Varenicline 3 nM; for YFP fluorescence quenching using Varenicline, 30 nM var: ligand Varenicline 30 nM; for YFP fluorescence quenching using Varenicline, 300 nM var: ligand Varenicline 300 nM; for YFP fluorescence quenching using Varenicline, 500 nM var: ligand Varenicline 500 nM; for YFP fluorescence quenching using Varenicline, 1 uM var: ligand Varenicline 1 uM
Summary of the method: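 Percent quench compares mean YFP signal over the final 10 s with the 15 s baseline before ligand, added in iodide-containing extracellular solution (pH 7.2). Cells were LX293T carrying a YFP anion reporter, transiently transfected with the channel construct; plates were preincubated 30 min at 37 °C.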

[2] = system: engineered receptors and wild type nAchRa7 expressed in HEK293T cells; assay: High throughput electrophysiology (IonFlux HT/Mercury automated patch clamp), EC50; format: cell-based, human
Experimental: To confirm the […] determined by plate reader as well as develop a better understanding of maximum current flow, the engineered receptors were subjected to high throughput electrophysiology system, as described below. For HEK293T studies, cDNAs encoding ion channels were cloned into pcDNA3.1 using standard recombination techniques. HEK293T cells from Clontech (Lenti-XTM 293T Cell Line) were cultured in DMEM supplemented with 10% FBS and 1% Pen/Strep to 40-50% confluence using standard cell culture protocols, transfected with ion channel plasmids at a concentration of 18 μg per 15 cm dish using Fugene 6, and grown for an additional 24 hours. Cells were then assayed on an electrophysiological system (IonFluxHT and/or Mercury, Fluxion Biosciences) in which dose-response relationships may be assessed through a microfluidics-based platform for establishing whole cell configurations. Ensemble plates were primed with extracellular buffer (140 mM NaCl, 5 mM KCl, 2 mM CaCl2), 1 mM MgCl2, 10 mM HEPES, and 10 mM glucose, pH 7.2 with NaOH, mOsm 310), intracellular buffer (145 mM CsCl, 2 mM CaCl2, 2 mM MgCl2, 10 mM HEPES, and 10 mM EGTA, pH 7.2 with CsOH, mOsm 305), as adapted from Lynagh and Lynch, and test compounds (stocks prepared fresh) diluted in extracellular buffer. Cells were then released from the plate with Accutase, centrifuged, resuspended in extracellular buffer, and loaded into Ensemble plates. Cells were then subjected to a standard protocol for priming, trapping, breaking, and establishing whole cell configuration, with cells held at −60 mV throughout the recording. After recording baseline, progressive doses of test compounds were applied using the IonFlux software to assess dose response relationships. Data were then analyzed off-line using custom Python scripts to convert data to .csv format, re-plot traces, and apply QC measurements to reject unstable recordings (i.e. thresholding based on access resistance and/or standard deviation in baseline, as well as artifact rejection). Peak currents were then calculated, and population data were fit using a 4-parameter logistic equation as described by the Hill Equation. Currents were measured on an automated patch clamp system (Fluxion Biosciences) following 1 second addition of drug and the EC50 values calculated are tabulated below in Table 22A and Table 22B below and Table 21A and Table 21B above (in Example 2).

[3] = 3 nM brd (TC-5619/Bradanicline)
[4] = 30 nM brd (TC-5619/Bradanicline)
[5] = 300 nM brd (TC-5619/Bradanicline)

B1: CODA536: engineered receptor: L131D, S172D in SEQ ID NO: 33 (protein)
chain: MRCSPGGVWLALAASLLHVSLQGEFQRKLYKELVKNYNPLERPVANDSQPLTVYFSLSLLQIMDVDEKNQVLTTNIWLQMSWTDHYLQWNVSEYPGVKTVRFPDGQIWKPDILLYNSADERFDATFHTNVDVNSSGHCQYLPPGIFKSSCPMDLKNFPMDVQTCKLKFGSWDYGGWSLDLQMQEADISGYIPNGEWDLVGIPGKRSERFYECCKEPYPDVTFTVTMRRRMGYYLIQMYIPSLLIVILSWISFWINMDAAPARVGLGITTVLTMTTQSSGSRASLPKVSYVKAIDIWMAVCLLFVFSALLEYAAVNFVSRQHKELLRFRRKRRHHKSPMLNLFQEDEAGEGRFNFSAYGMGPACLQAKDGISVKGANNSNTTNPPPAPSKSPEEMRKLFIQRAKKIDKISRIGFPMAFLIFNMFYWIIYKIVRREDVHNQ
modifications: synthetic sequence of chimeric LGIC
YFP fluorescence quenching using TC-5619/Bradanicline (percent quench) ([1]; 1 nM brd (TC-5619/Bradanicline)): −1.24% | YFP fluorescence quenching using TC-5619/Bradanicline (percent quench) [1, 3]: 0.25% | YFP fluorescence quenching using TC-5619/Bradanicline (percent quench) ([1]; 10 nM brd (TC-5619/Bradanicline)): −2.57% | YFP fluorescence quenching using TC-6683 (percent quench) ([1]; 30 nM TC-6683): −22.285% | YFP fluorescence quenching using TC-5619/Bradanicline (percent quench) [1, 4]: 0.78% | YFP fluorescence quenching using ABT-126 (percent quench) ([1]; 50 nM abt (ABT-126)): −3.19% | YFP fluorescence quenching (percent quench) ([1]; 100 nM CNL002): 71.72% | YFP fluorescence quenching using ABT-126 (percent quench) ([1]; 100 nM abt (ABT-126)): 7.58% | YFP fluorescence quenching using AZD-0328 (percent quench) ([1]; 100 nM azd0328): 51.44% | YFP fluorescence quenching using TC-5619/Bradanicline (percent quench) ([1]; 100 nM brd (TC-5619/Bradanicline)): 4.51% | YFP fluorescence quenching using TC-6683 (percent quench) ([1]; 300 nM TC-6683): −23.926% | YFP fluorescence quenching using ABT-126 (percent quench) ([1]; 300 nM abt (ABT-126)): −1.65% | YFP fluorescence quenching using AZD-0328 (percent quench) ([1]; 300 nM azd0328): 77.12% | YFP fluorescence quenching using TC-5619/Bradanicline (percent quench) [1, 5]: 30.97% | YFP fluorescence quenching (percent quench) ([1]; 1 uM CNL002): 77.26% | YFP fluorescence quenching using ABT-126 (percent quench) ([1]; 1 uM abt (ABT-126)): 31.29% | YFP fluorescence quenching using TC-5619/Bradanicline (percent quench) ([1]; 1 uM brd (TC-5619/Bradanicline)): 44.41% | YFP fluorescence quenching using TC-6683 (percent quench) ([1]; 3 uM TC-6683): −20.514% | YFP fluorescence quenching (percent quench) ([1]; 10 uM ach (acetylcholine)): −12.91% | YFP fluorescence quenching (percent quench) ([1]; 30 uM CNL002): 77.5% | YFP fluorescence quenching using TC-6683 (percent quench) ([1]; 30 uM TC-6683): −3.078% | YFP fluorescence quenching using AZD-0328 (percent quench) ([1]; 30 uM azd0328): 79.26% | YFP fluorescence quenching using TC-6683 (percent quench) ([1]; 100 uM TC-6683): 7.37% | YFP fluorescence quenching (percent quench) ([1]; 100 uM ach (acetylcholine)): −20.88% | YFP fluorescence quenching (percent quench) ([1]; 1 mM ach (acetylcholine)): 79.85% | YFP fluorescence quenching (percent quench) ([1]; 3 mM ach (acetylcholine)): 79.98% | YFP fluorescence quenching using Facinicline, 30 nM fac [1]: 24.15 | YFP fluorescence quenching using Facinicline, 300 nM fac [1]: 80.17 | YFP fluorescence quenching using Facinicline, 10 uM fac ([1]; ligand Facinicline 10 uM): 81.34 | YFP fluorescence quenching using Facinicline, 30 uM fac [1]: 79.9 | YFP fluorescence quenching using TC-6987, 1 uM tc6987 [1]: −18.24 | YFP fluorescence quenching using TC-6987, 10 uM tc6987 [1]: −23.06 | YFP fluorescence quenching using TC-6987, 500 uM tc6987 [1]: −19.3 | fold increased potency towards AZD-0328 compared to wild type control receptor ([2]; ligand AZD-0328): at least 10 fold | fold increased potency towards RG-3487 compared to wild type receptor ([2]; ligand RG-3487): at least 10 fold

B2: CODA109: engineered receptor: S170T in SEQ ID NO: 33 (protein)
chain: MRCSPGGVWLALAASLLHVSLQGEFQRKLYKELVKNYNPLERPVANDSQPLTVYFSLSLLQIMDVDEKNQVLTTNIWLQMSWTDHYLQWNVSEYPGVKTVRFPDGQIWKPDILLYNSADERFDATFHTNVLVNSSGHCQYLPPGIFKSSCPMDLKNFPMDVQTCKLKFGTWSYGGWSLDLQMQEADISGYIPNGEWDLVGIPGKRSERFYECCKEPYPDVTFTVTMRRRMGYYLIQMYIPSLLIVILSWISFWINMDAAPARVGLGITTVLTMTTQSSGSRASLPKVSYVKAIDIWMAVCLLFVFSALLEYAAVNFVSRQHKELLRFRRKRRHHKSPMLNLFQEDEAGEGRFNFSAYGMGPACLQAKDGISVKGANNSNTTNPPPAPSKSPEEMRKLFIQRAKKIDKISRIGFPMAFLIFNMFYWIIYKIVRREDVHNQ
modifications: synthetic sequence of chimeric LGIC
YFP fluorescence quenching using CNL001 (percent quench) ([1]; 1 nM CNL001, first column so headed): 19.755% | YFP fluorescence quenching using CNL001 (percent quench) ([1]; 1 nM CNL001, second column so headed): 65.484% | YFP fluorescence quenching using TC-5619/Bradanicline (percent quench) [1, 3]: 70.58% | YFP fluorescence quenching using CNL001 (percent quench) ([1]; 10 nM CNL001, first column so headed): 79.024% | YFP fluorescence quenching using CNL001 (percent quench) ([1]; 10 nM CNL001, second column so headed): 81.563% | YFP fluorescence quenching using TC-5619/Bradanicline (percent quench) [1, 4]: 80.71% | YFP fluorescence quenching using CNL001 (percent quench) ([1]; 50 nM CNL001, first column so headed): 81.926% | YFP fluorescence quenching using CNL001 (percent quench) ([1]; 50 nM CNL001, second column so headed): 83.092% | YFP fluorescence quenching using ABT-126 (percent quench) ([1]; 50 nM abt (ABT-126)): 55.83% | YFP fluorescence quenching using CNL001 (percent quench) ([1]; 100 nM CNL001, first column so headed): 83% | YFP fluorescence quenching using CNL001 (percent quench) ([1]; 100 nM CNL001, second column so headed): 83.811% | YFP fluorescence quenching (percent quench) ([1]; 100 nM CNL002): 73.48% | YFP fluorescence quenching using ABT-126 (percent quench) ([1]; 100 nM abt (ABT-126)): 68.89% | YFP fluorescence quenching using AZD-0328 (percent quench) ([1]; 100 nM azd0328): 84.01% | YFP fluorescence quenching using ABT-126 (percent quench) ([1]; 300 nM abt (ABT-126)): 72.52% | YFP fluorescence quenching using AZD-0328 (percent quench) ([1]; 300 nM azd0328): 87.08% | YFP fluorescence quenching using TC-5619/Bradanicline (percent quench) [1, 5]: 80.66% | YFP fluorescence quenching using CNL001 (percent quench) ([1]; 1 uM CNL001, first column so headed): 81.834% | YFP fluorescence quenching using CNL001 (percent quench) ([1]; 1 uM CNL001, second column so headed): 83.858% | YFP fluorescence quenching (percent quench) ([1]; 1 uM CNL002): 70.03% | YFP fluorescence quenching using ABT-126 (percent quench) ([1]; 1 uM abt (ABT-126)): 70.96% | YFP fluorescence quenching (percent quench) ([1]; 10 uM ach (acetylcholine)): 82.91% | YFP fluorescence quenching (percent quench) ([1]; 30 uM ach (acetylcholine)): 82.53% | YFP fluorescence quenching using AZD-0328 (percent quench) ([1]; 30 uM azd0328): 87.27% | YFP fluorescence quenching (percent quench) ([1]; 50 uM ach (acetylcholine)): 82.11% | YFP fluorescence quenching (percent quench) ([1]; 100 uM ach (acetylcholine)): 83.68% | YFP fluorescence quenching (percent quench) ([1]; 1 mM ach (acetylcholine)): 69.89% | YFP fluorescence quenching (percent quench) ([1]; 3 mM ach (acetylcholine)): 78.12% | YFP fluorescence quenching using Facinicline, 30 nM fac [1]: 76.45 | YFP fluorescence quenching using Facinicline, 100 nM fac ([1]; ligand Facinicline 100 nM): 82.45 | YFP fluorescence quenching using Facinicline, 300 nM fac [1]: 71.09 | YFP fluorescence quenching using Facinicline, 30 uM fac [1]: 69.41 | YFP fluorescence quenching using TC-6987, 1 uM tc6987 [1]: 71.45 | YFP fluorescence quenching using TC-6987, 10 uM tc6987 [1]: 71.04 | YFP fluorescence quenching using TC-6987, 500 uM tc6987 [1]: 66.2 | YFP fluorescence quenching using Varenicline, 3 nM var ([1]; first column): −20.96 | YFP fluorescence quenching using Varenicline, 3 nM var ([1]; second column): −19.953 | YFP fluorescence quenching using Varenicline, 30 nM var ([1]; first column): −16.094 | YFP fluorescence quenching using Varenicline, 30 nM var ([1]; second column): −21.502 | YFP fluorescence quenching using Varenicline, 300 nM var ([1]; first column): 64.373 | YFP fluorescence quenching using Varenicline, 300 nM var ([1]; second column): 71.198 | YFP fluorescence quenching using Varenicline, 500 nM var ([1]; first column): 71.892 | YFP fluorescence quenching using Varenicline, 500 nM var ([1]; second column): 73.53 | YFP fluorescence quenching using Varenicline, 1 uM var ([1]; first column): 75.461 | YFP fluorescence quenching using Varenicline, 1 uM var ([1]; second column): 78.578
